Literature values, collected in PMC7927047.

Key:
[1] = molecular target: Cbl-b (Type I orientation, R904) (Homo sapiens) (UniProt Q13191); experiment: NMR titration
[2] = molecular target: Cbl-b (Type II orientation, R911) (Homo sapiens) (UniProt Q13191); experiment: NMR titration
Sequence of Cbl-b (Type II orientation, R911) (Homo sapiens) (Q13191 whole entry): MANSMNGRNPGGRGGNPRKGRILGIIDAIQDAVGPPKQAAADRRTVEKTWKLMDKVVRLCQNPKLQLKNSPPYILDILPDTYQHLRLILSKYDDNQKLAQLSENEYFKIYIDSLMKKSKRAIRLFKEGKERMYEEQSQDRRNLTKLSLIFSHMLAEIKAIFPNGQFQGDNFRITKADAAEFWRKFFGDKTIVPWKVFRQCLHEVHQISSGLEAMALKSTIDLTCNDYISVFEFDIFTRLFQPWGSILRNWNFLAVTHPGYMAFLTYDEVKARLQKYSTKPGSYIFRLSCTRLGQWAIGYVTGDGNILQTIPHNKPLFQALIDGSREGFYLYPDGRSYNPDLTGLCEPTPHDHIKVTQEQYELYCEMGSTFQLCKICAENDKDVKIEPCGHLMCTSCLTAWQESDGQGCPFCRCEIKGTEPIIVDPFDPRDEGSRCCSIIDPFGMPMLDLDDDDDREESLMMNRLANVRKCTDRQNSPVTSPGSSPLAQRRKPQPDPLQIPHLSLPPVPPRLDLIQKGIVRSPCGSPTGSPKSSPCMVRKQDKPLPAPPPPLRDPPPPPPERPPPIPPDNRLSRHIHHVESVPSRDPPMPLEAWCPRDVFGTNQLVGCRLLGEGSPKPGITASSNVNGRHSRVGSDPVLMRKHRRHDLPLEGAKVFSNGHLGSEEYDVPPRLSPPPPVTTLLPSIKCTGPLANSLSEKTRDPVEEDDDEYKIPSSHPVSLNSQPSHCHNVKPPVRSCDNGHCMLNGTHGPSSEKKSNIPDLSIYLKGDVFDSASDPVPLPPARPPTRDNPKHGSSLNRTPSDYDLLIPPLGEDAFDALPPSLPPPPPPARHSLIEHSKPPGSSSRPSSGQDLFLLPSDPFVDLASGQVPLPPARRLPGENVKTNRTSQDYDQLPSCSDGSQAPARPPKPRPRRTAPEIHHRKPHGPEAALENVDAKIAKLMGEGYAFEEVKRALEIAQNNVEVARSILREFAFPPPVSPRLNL

Sequence of CIN85 SH3 (Q96B97 1-58): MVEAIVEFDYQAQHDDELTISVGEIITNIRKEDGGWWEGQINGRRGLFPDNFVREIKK
Sequence of Cbl-b (Type I orientation, R904) (Homo sapiens) (Q13191 whole entry): as the sequence (Q13191 whole entry) above

Kd [1]: 46.9 µM | Kd [2]: 2 µM
Substance: CIN85 SH3 (from UniProt Q96B97)
